Test results as given in the supplement of paper PMC10567573.

Assay: protein stability index of a GFP-peptide fusion (GPS, HEK-293T) (PSI 1-6); higher = more stable
Settings: c terminus: native
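Also: lentivirally expressed fusion library, cells FACS-sorted into six equal-sized GFP/DsRed ratio bins, PSI computed from sequencing read fractions per bin weighted by bin number.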

## CQPISFSGFGAEDDDLGGLGLGPY [POLD2 addY]
parent: NP_006221.1
  protein stability index: 2.32

## HSLRAVSTDPPHHDHHDEFCLMPY [BEX2 addY]
parent: NP_116010.1
  protein stability index: 3.52

## EQRNSRWNTVLRAVKAKTHHLEPY [TRPA1 addY]
parent: NP_015628.1
  protein stability index: 4.2

## DGWIRVSSDNVADLHEKYSGSTPY [PSMB5 addY]
parent: NP_002788.1
  protein stability index: 3.43

## LPALFTDLYSQEITAEEAREALPY [SNF8 addY]
parent: NP_009172.2
  protein stability index: 4.33
